For this experiment, the target named is T1, aspartyl (asparaginyl) β-hydroxylase (ASPH) (UniProt Q12797 75-758, limits assumed).
T1 construct: also called ASPH protein
T1 sequence (looked up): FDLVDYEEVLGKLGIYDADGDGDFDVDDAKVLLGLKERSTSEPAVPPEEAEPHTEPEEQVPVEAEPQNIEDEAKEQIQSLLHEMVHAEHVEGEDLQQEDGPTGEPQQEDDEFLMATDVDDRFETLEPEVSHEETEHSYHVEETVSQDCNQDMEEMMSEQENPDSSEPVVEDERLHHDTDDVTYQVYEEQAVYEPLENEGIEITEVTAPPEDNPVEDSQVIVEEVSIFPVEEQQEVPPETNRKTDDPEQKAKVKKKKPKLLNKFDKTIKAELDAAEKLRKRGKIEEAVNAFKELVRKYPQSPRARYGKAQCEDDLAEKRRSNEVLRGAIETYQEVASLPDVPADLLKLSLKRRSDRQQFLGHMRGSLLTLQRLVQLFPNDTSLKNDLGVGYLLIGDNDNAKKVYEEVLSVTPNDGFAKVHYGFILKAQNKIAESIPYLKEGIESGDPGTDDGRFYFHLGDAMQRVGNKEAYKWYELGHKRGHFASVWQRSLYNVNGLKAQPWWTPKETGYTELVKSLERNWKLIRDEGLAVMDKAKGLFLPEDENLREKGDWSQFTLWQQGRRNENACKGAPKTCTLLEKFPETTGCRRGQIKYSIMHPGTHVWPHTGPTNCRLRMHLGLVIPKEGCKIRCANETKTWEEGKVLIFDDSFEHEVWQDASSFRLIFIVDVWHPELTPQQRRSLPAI
In words: SPR, antibody captured via Protein G, ASPH as analyte. As to the method: The interaction between ASPH and a set of 6 antibodies were characterized by Essai Sciences LLC (Stillwater, Okla.) on a SensiQ Pioneer SPR Platform. The COOH2 sensor chip, which contains a planar dextran surface, was used for target immobilization. The buffer system was 10 mM HEPES, pH 7.4, 150 mM NaCl, and 0.01% Tween-20.
All channels of a COOH2 sensor chip were activated with a five-minute injection of 40 mM EDC and 10 mM NHS. Protein G was then injected across channels 1 and 2. 1 M ethanolamine, pH 8.0 was then injected across all three channels. Approximately 1000 response units of Protein G were captured on both channels 1 and 2 (FIG. 18). For each antibody-ASPH interaction, the antibody was injected on channel 1, leaving channels 2 and 3 as a Protein G reference and empty channel reference, respectively. After antibody capture, ASPH was injected at a single concentration. Following injection of ASPH, all three channels were injected with 10 mM NaOH for one minute to regenerate the Protein G surface. This was done twice for each antibody, at each tested concentration of ASPH.

Like-named read-outs stand apart in the source and are kept apart here.

The source of these data is patent US20210009713A1 (MIDWESTERN UNIVERSITY, published 2021).

B1: 9H2/9K3 (antibody, part only; not given: kappa light chain, V domains shown, part only)
VH: QSLEESGGDLVKPGASLTLTCKASGFDFISNAMCWVRQAPGKGPEWIACIDNGDGSTDYATWAKGRFTISKTSSTTVTLQMTSLTAADTATYFCTRNFNLWGQGTLTVSSGQPKAPSVFPLAP
For B1, the Kd amounted to 61.9 nM, the dissociation rate constant (koff) was found to be 0.00185 s⁻¹ and the kon turned out to be 29800 M⁻¹ s⁻¹. Further, the Kd (record 2) came out at 60 nM.

B2: 5H4/5K3 (antibody, V domains shown)
VH: QSLEESGGDLVKPGASLTLTCKASGFDFSSNAMCWVRQAPGKGPEWIACIDNGDGSTDYATWAKGRFTISKTSSTTVTLQMTSLTAADTATYFCTRNFNLWGQGTLVTVSS
VL: AQVLTQTASSVSAAVGGTVTISCQSSQSVYDNNRLAWFQQKPGQPPKLLIYETSKLASGVPLRFKGSGSGTQFTLTISDLECDDAATYYCLGSYSGYIYTFGGGTEVVVKG
notes: The entries are translated variable regions that still carry the leader and the start of the constant region (GQPK... / GDPV...)
B2 showed a dissociation constant Kd of 144 nM, a koff of 0.00243 s⁻¹ and a kon of 16800 M⁻¹ s⁻¹.
